Data set [1] deals with the molecule itself. The experiment in a line: size exclusion chromatography and SAXS, self-association (homodimer). The method, then:
Size Exclusion Chromatography. To determine molecular mass, NTA purified samples were subjected to size exclusion chromatography (Superdex 200 10/300 GL, GE Healthcare) equilibrated with SEC buffer (100 mM Tris pH7.5, 200 mM sodium chloride). The protein sample equilibrated in SEC buffer was applied to the column. The mass of BHT₍₂₃₋₅₉₄₎-HIS was calculated based on the standards in the high molecular weight gel calibration kit (Cytiva Life Sciences*).
Small angle X-ray scattering: Data Collection and Analysis. rBHT₍₂₃₋₅₉₄₎-HIS samples at 1 mg/ml and 4 mg/ml 5 mM in sodium phosphate buffer at pH 5 were measured on a Rigaku Bio-SAXS 2000. The instrument uses Cu Kα radiation (λ=1.54 Å) and was collimated to provide a sufficient Q-range of 0.01-0.67 Å⁻¹. Measurements were performed at ambient temperature. Samples were measured for a total of 40 min in 5 min scans. Data were corrected for transmission and sample background. […]
The dimer conformation was further validated in solution by small X-ray scattering (SAXS) (FIG. 7A). […] Molecular mass were calculated using the method described by Rambo and Tamer. The molecular mass determined from SAXS (˜169 KDa) confirmed that BHT forms a dimer in solution Table 3. […] The Rg and Dₘₐₓ of the 6M4F crystallographic dimer (molecule A and molecule C) calculated using Crysol are 34 Å and 110 Å, respectively. […]
(SEC sorts molecules by how far they enter the pores of the column.)

Data set [2] concerns the molecule itself. The experiment in a line: size exclusion chromatography, self-association (homodimer); data not shown.

B1: rBHT(23-594)-HIS (enzyme)
chain: VTYPGAIPLSLTSNYETPSPTAIPLEPTPTATGTAELDALWNLVEAQYPVQTAAVTTLVTVPDDYKFEADPPSYALAGYETSEIAGLKFPKGFKFGVAGAAIQVEGAAKAEGRGPSTWDYLCHHYASTQCNNYDPDITTNHYYLYPLDFARLQHLGINTYSFSISWTRIYPLGAGYVNEAGLAHYDAVIHSAKKYGLEPVGTVFHWDTPLSLMLKYGAWQDTGDQIVKDFVTYATTVFKRYGNEVKTWFTFNEPRVFCSQNSGLPYNLTYPEGINSTSAVFRCTYNVLKAHGHAVKVYRDLVASGTIAAGEIGFKSDDNYPIPARPGNADDEESAKRHEAFRIGIFAQPVYGNGDYPDVVKETVGDMLPALTDEDKGYIKGSGDIFAIDGYRTDISHAALNGIANCIRNQSDPNWPVCEEGSDPFAHVYPSGFAIGQSADPLSSWLVNSAPFIRDQLKFLTQTYPAKGGIYFSEFGWAEDAEYDRQLLYQITWDGLRTQYLTDYLSQLLLAVHKDGINLRGALTWSFVDNWEWGLGMQQKFGFQFVNQSDPDLTRTFKLSAHAYAQFGRNHLHHHHHH
modifications: N-glycosylated at N289, N297, N431 and N569 (numbering of full-length BHT, SEQ ID NO: 1), expressed in K. pastoris
notes: the entries describe its self-association into a homodimer
As to B1, the binding result in data set [1] is on record as “binds”.

B2: rBHT(54-594)-HIS (enzyme)
chain: TGTAELDALWNLVEAQYPVQTAAVTTLVTVPDDYKFEADPPSYALAGYETSEIAGLKFPKGFKFGVAGAAIQVEGAAKAEGRGPSTWDYLCHHYASTQCNNYDPDITTNHYYLYPLDFARLQHLGINTYSFSISWTRIYPLGAGYVNEAGLAHYDAVIHSAKKYGLEPVGTVFHWDTPLSLMLKYGAWQDTGDQIVKDFVTYATTVFKRYGNEVKTWFTFNEPRVFCSQNSGLPYNLTYPEGINSTSAVFRCTYNVLKAHGHAVKVYRDLVASGTIAAGEIGFKSDDNYPIPARPGNADDEESAKRHEAFRIGIFAQPVYGNGDYPDVVKETVGDMLPALTDEDKGYIKGSGDIFAIDGYRTDISHAALNGIANCIRNQSDPNWPVCEEGSDPFAHVYPSGFAIGQSADPLSSWLVNSAPFIRDQLKFLTQTYPAKGGIYFSEFGWAEDAEYDRQLLYQITWDGLRTQYLTDYLSQLLLAVHKDGINLRGALTWSFVDNWEWGLGMQQKFGFQFVNQSDPDLTRTFKLSAHAYAQFGRNHLHHHHHH
notes: the entry describes its self-association into a dimer
With B2, the binding result in data set [2] was “binds”.

B3: rBHT(57-594)-HIS (enzyme)
chain: AELDALWNLVEAQYPVQTAAVTTLVTVPDDYKFEADPPSYALAGYETSEIAGLKFPKGFKFGVAGAAIQVEGAAKAEGRGPSTWDYLCHHYASTQCNNYDPDITTNHYYLYPLDFARLQHLGINTYSFSISWTRIYPLGAGYVNEAGLAHYDAVIHSAKKYGLEPVGTVFHWDTPLSLMLKYGAWQDTGDQIVKDFVTYATTVFKRYGNEVKTWFTFNEPRVFCSQNSGLPYNLTYPEGINSTSAVFRCTYNVLKAHGHAVKVYRDLVASGTIAAGEIGFKSDDNYPIPARPGNADDEESAKRHEAFRIGIFAQPVYGNGDYPDVVKETVGDMLPALTDEDKGYIKGSGDIFAIDGYRTDISHAALNGIANCIRNQSDPNWPVCEEGSDPFAHVYPSGFAIGQSADPLSSWLVNSAPFIRDQLKFLTQTYPAKGGIYFSEFGWAEDAEYDRQLLYQITWDGLRTQYLTDYLSQLLLAVHKDGINLRGALTWSFVDNWEWGLGMQQKFGFQFVNQSDPDLTRTFKLSAHAYAQFGRNHLHHHHHH
notes: as for B2
For the protein B3, the binding result in data set [2] is reported as “binds”.

B4: rBHT(32-594)-HIS (enzyme)
chain: SLTSNYETPSPTAIPLEPTPTATGTAELDALWNLVEAQYPVQTAAVTTLVTVPDDYKFEADPPSYALAGYETSEIAGLKFPKGFKFGVAGAAIQVEGAAKAEGRGPSTWDYLCHHYASTQCNNYDPDITTNHYYLYPLDFARLQHLGINTYSFSISWTRIYPLGAGYVNEAGLAHYDAVIHSAKKYGLEPVGTVFHWDTPLSLMLKYGAWQDTGDQIVKDFVTYATTVFKRYGNEVKTWFTFNEPRVFCSQNSGLPYNLTYPEGINSTSAVFRCTYNVLKAHGHAVKVYRDLVASGTIAAGEIGFKSDDNYPIPARPGNADDEESAKRHEAFRIGIFAQPVYGNGDYPDVVKETVGDMLPALTDEDKGYIKGSGDIFAIDGYRTDISHAALNGIANCIRNQSDPNWPVCEEGSDPFAHVYPSGFAIGQSADPLSSWLVNSAPFIRDQLKFLTQTYPAKGGIYFSEFGWAEDAEYDRQLLYQITWDGLRTQYLTDYLSQLLLAVHKDGINLRGALTWSFVDNWEWGLGMQQKFGFQFVNQSDPDLTRTFKLSAHAYAQFGRNHLHHHHHH
notes: as for B2
For the protein B4, the binding result in data set [2] is on record as “binds”.
